{"source": "paper PMC10055539", "about": "(Research Square, 2023)", "molecules": {"B1": {"name": "Thermoplasma acidophilum 20S proteasome β subunit (natural protein, T. acidophilum, UniProt P28061 9-211, looked up)", "chain": "TTTVGITLKDAVIMATERRVTMENFIMHKNGKKLFQIDTYTGMTIAGLVGDAQVLVRYMKAELELYRLQRRVNMPIEAVATLLSNMLNQVKYMPYMVQLLVGGIDTAPHVFSIDAAGGSVEDIYASTGSGSPFVYGVLESQYSEKMTVDEGVDLVIRAISAAKQRDSASGGMIDVAVITRKDGYVQLPTDQIESRIRKLGLIL", "notes": "proteasome subunit beta of the Thermoplasma acidophilum 20S proteasome; Single subunit of m1, written for the subunit-subunit rows of the structures; also called T20S β subunit; source: part of the purified T20S (purified as described [42], via 8XHis tags on the C-terminus of β subunit)"}, "B2": {"name": "N-acetylated PAN C-terminus peptide, six residues (peptide)", "peptide": "Ac-LDVLYR"}, "B3": {"name": "Thermoplasma acidophilum 20S proteasome α subunit, wild type (natural protein, T. acidophilum)", "chain": "MQQGQMAYDRAITVFSPDGRLFQVEYAREAVKKGSTALGMKFANGVLLISDKKVRSRLIEQNSIEKIQLIDDYVAAVTSGLVADARVLVDFARISAQQEKVTYGSLVNIENLVKRVADQMQQYTQYGGVRPYGVSLIFAGIDQIGPRLFDCDPAGTINEYKATAIGSGKDAVVSFLEREYKENLPEKEAVTLGIKALKSSLEEGEELKAPEIASITVGNKYRIYDQEEVKKFL", "notes": "proteasome subunit alpha of the Thermoplasma acidophilum 20S proteasome; Single subunit of m1, written for the subunit-subunit rows of the structures; also called T20S α subunit; source: part of the purified T20S (purified as described [42], via 8XHis tags on the C-terminus of β subunit)"}, "B4": {"name": "Thermoplasma acidophilum 20S proteasome α subunit with the L81Y mutation (natural protein, T. acidophilum)", "chain": "B3 chain with L81Y", "notes": "proteasome subunit alpha of the Thermoplasma acidophilum 20S proteasome, L81Y; Subunit of the T20S-αL81Y proteasome whose cryo-EM structure is solved here; also called T20S-αL81Y α subunit; source: part of the purified T20S-αL81Y (overlapping PCR site-directed mutagenesis; purified via 8XHis tags on the C-terminus of β subunit)"}, "B5": {"name": "Z-Tyr-Ala (carboxybenzyl-tyrosine-alanine), HbYX-like dipeptide mimetic (peptide)", "peptide": "Cbz-Tyr-Ala"}}, "key": {"[1]": {"biological_target": "Thermoplasma acidophilum wild type 20S proteasome (T. acidophilum) (UniProt P25156)"}, "[2]": {"biological_target": "the molecule itself", "assay": "cryo-EM structure; 0.5 mg/mL T20S-αL81Y in 50mM Tris pH 7.4, 150mM NaCl; Titan Krios; homogeneous refinement with D7 symmetry; partially open gate"}, "[3]": {"biological_target": "B4", "assay": "cryo-EM structure; 0.5 mg/mL T20S-αL81Y in 50mM Tris pH 7.4, 150mM NaCl; Titan Krios; homogeneous refinement with D7 symmetry; partially open gate", "settings": "both partners purified"}, "[4]": {"biological_target": "B3", "assay": "cryo-EM structure; 0.5 mg/mL WT T20S in 50mM Tris pH 7.4, 150mM NaCl; Titan Krios; homogeneous refinement with D7 symmetry; closed gate", "settings": "both partners purified"}, "[5]": {"biological_target": "the molecule itself", "assay": "cryo-EM structure; 0.5 mg/mL WT T20S in 50mM Tris pH 7.4, 150mM NaCl; Titan Krios; homogeneous refinement with D7 symmetry; closed gate"}, "[6]": {"biological_target": "Thermoplasma acidophilum wild type 20S proteasome (T. acidophilum) (UniProt P25156)", "remark": "listed apart in the source"}, "[7]": {"biological_target": "Mammalian 20S proteasome isolated from bovine liver (bovine (isolated from bovine liver), UniProt Q2YDE4 1-246; Q3T0Y5 1-234; Q3ZCK9 1-261; Q3ZBG0 1-248; Q5E987 1-241; Q3T0X5 …)", "assay": "cell-based or functional assay"}}, "note": "Changes are numbered by the printed parent chain. Numbers in names are those of the source. Ends that are not written are not given here. * marks the point of attachment. Cbz = O=C(OCc1ccccc1)*", "data": [{"molecule": "N-acetylated PAN C-terminus peptide, three residues (Ac-LYR)", "values": [{"measurement": "LFP hydrolysis (rfu/min) by 7nM WT T20S with N-terminally acetylated peptide (200 μM), relative to DMSO; gate opening", "setting": "[1]", "value": 2, "unit": "fold"}]}, {"molecule": "B1", "values": [{"measurement": "binding result", "setting": "[2]", "value": "binds"}, {"measurement": "binding result", "setting": "[3]", "value": "binds"}, {"measurement": "binding result", "setting": "[4]", "value": "binds"}]}, {"molecule": "B2", "values": [{"measurement": "LFP hydrolysis (rfu/min) by 7nM WT T20S with N-terminally acetylated peptide (200 μM), relative to DMSO; gate opening", "setting": "[1]", "value": "> 10", "unit": "fold"}]}, {"molecule": "B3", "values": [{"measurement": "binding result", "setting": "[5]", "value": "binds"}]}, {"molecule": "B4", "values": [{"measurement": "binding result", "setting": "[2]", "value": "binds"}]}, {"molecule": "B5", "values": [{"measurement": "LFP hydrolysis (rfu/min) by 7nM WT T20S with ZYA (2.5mM), normalized to DMSO; gate opening", "setting": "[6]", "value": 13, "unit": "fold"}, {"measurement": "nLPnLD-AMC hydrolysis by mammalian 20S (0.5 nM), dose response of ZYA, normalized to DMSO: activation at saturation", "setting": "[7]", "value": "~50", "unit": "fold"}]}]}
